Assay results as given in patent publication US8129149B1, “Rapid and sensitive method to measure endonuclease activity” (The United States of America as represented by the …, priority 2008, dated 2012).

Target: T1, Recombinant APE1 (Homo sapiens, UniProt P27695)
T1 construct: purchased NEW ENGLAND BIOLABS
Test: APE activity assay: APE cleavage of the substrate oligonucleotide, detected by Taq polymerase extension and real-time PCR
Format: biochemical
Conditions: well A04; Substrate DNA and Template DNA with APE
Procedure: Recombinant APE1 at 10,000 units/ml in 50% glycerol was purchased from NEW ENGLAND BIOLABS. One unit is defined as the amount of enzyme required to hydrolyze 20 pmol of a 34 bp oligonucleotide duplex containing a single AP site in a 10 ul reaction volume over one hour at 37° C. The reaction buffer consisted of 50 mM potassium acetate, 20 mM Tris-acetate, 10 mM magnesium acetate (pH 7.9) and 1 mM dithiothreitol.
All oligonucleotides, primers and probes were purchased from GENE LINK, INC. (Hawthorne, N.Y.). The two oligonucleotides that are specific to this technique, are designated the substrate and the template. The oligonucleotide with sequence 5′-GGGGTTTTGGGTTTTTTTAATTTTAGGTTGTGGTTGTGGTTGTCGGXGACGTGTTGGTTTTT/3ddC/3′ (SEQ. ID No. 1) serving as the substrate for APE contains the tetrahydrofuran, an abasic analog (X), and a 3′ dideoxy-C to prevent extension by DNA polymerase. […]
Real-time PCR was performed using a BIO-RAD LABORATORIES (Hercules, Calif.) ICYCLER using BIO-RAD LABORATORIES IQTM SUPERMIX. Cycle times were an initial step at 95° C. for 10 minutes followed by an amplification program of 50 cycles of 3 seconds at 95° C., 5 seconds at 61° C., and 20 seconds at 72° C. with fluorescence acquisition in relative florescent units at the end of each extension. […]

T1 sequence (P27695 whole entry): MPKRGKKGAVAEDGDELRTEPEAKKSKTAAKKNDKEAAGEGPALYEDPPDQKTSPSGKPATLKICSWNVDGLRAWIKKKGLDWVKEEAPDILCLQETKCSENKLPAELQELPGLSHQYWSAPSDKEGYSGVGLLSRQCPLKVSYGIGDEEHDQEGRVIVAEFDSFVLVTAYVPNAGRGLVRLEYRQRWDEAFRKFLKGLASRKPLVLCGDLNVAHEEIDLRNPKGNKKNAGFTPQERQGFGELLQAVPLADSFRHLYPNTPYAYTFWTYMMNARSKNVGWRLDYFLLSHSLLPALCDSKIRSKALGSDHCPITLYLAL

B1: 5′-GGGGTTTTGGGTTTTTTTAATTTTAGGTTGTGGTTGTGGTTGTCGGXGACGTGTTGGTTTTT/3ddC/3′ (nucleic acid)
chain: GGGGTTTTGGGTTTTTTTAATTTTAGGTTGTGGTTGTGGTTGTCGGGACGTGTTGGTTTTT
modifications: tetrahydrofuran abasic site; 3' dideoxy-C; SITE (46)...(47) Tetrahydrofuran is used to modify site 46 and 47. Serves as substrate for APE. Substrate is a commercial product. The 3′ end is modified by 3ddc/3′ to prevent extension by DNA polymerase.Chemically Synthesized
notes: substrate for APE; contains the tetrahydrofuran, an abasic analog (X), and a 3′ dideoxy-C to prevent extension by DNA polymerase
CT of real-time PCR amplification: 26.3
